For data set [1], the target named is T1, Gbn (SCO1839) (Streptomyces coelicolor A3(2) M145, UniProt Q9RJ29 1-73).
T1 sequence: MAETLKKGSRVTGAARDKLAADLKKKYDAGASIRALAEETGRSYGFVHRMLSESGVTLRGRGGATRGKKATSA
Briefly: EMSA; three binding events seen for four motifs; 7.5 nM DNA; EMSA: 10 mM Tris-HCl pH 7.9, 0.1 mM EDTA, 50 mM KCl, 30 C 15 min, 5% PAGE, ethidium bromide; TPM: 10 mM Tris-HCl pH 8.0, 0.1 mM EDTA, 50 mM KCl, 0.5% acetylated BSA. The note with it: protein: recombinant; tags: His6 (pET28a, pGWS1286; printed as both His6-Gbn and Gbn-His6); blunt. For orientation: A gel shift assay detects complexes by their altered migration in electrophoresis.

Data set [2] concerns the target T1, Gbn (SCO1839). Put plainly: EMSA; half-binding concentration reduced by more than one-third versus N2; 5 nM DNA; EMSA: 10 mM Tris-HCl pH 7.9, 0.1 mM EDTA, 50 mM KCl, 30 C 15 min, 5% PAGE, ethidium bromide; TPM: 10 mM Tris-HCl pH 8.0, 0.1 mM EDTA, 50 mM KCl, 0.5% acetylated BSA. The conditions noted are these: protein: recombinant; tags: His6 (pET28a, pGWS1286; printed as both His6-Gbn and Gbn-His6); blunt.

B1: p1839_50Quadruple (dsDNA)
DNA 1: GATGGCGGATCACGGATCGGCCGAATGATCCATAACCAGTGGATCATCCA
DNA 2: TGGATGATCCACTGGTTATGGATCATTCGGCCGATCCGTGATCCGCCATC
As for B1, the binding result in data set [1] was “binds”.

B2: p1839_50Single_strong (++, GATCWT) (dsDNA)
DNA 1: CTCGACGCCGTCCGGAAGCAGAATGATCCGTTCCGGCTGGAGCGCCTCGA
DNA 2: TCGAGGCGCTCCAGCCGGAACGGATCATTCTGCTTCCGGACGGCGTCGAG
Consider B2, for which the binding result in data set [2] is on record as “binds”.

For the origin of these results see publication PMC9239103, “System-Wide Analysis of the GATC-Binding Nucleoid-Associated Protein Gbn and Its Impact on Streptomyces Development”.
